B1: SjGST20 (Saccharina japonica) (protein)
chain: MVPVFNYFGVPARGEATRVALAVAGVEFVDKIIPYAELHASGFRAVPVYQLDGTNYTQSTALLRYAGKLGGTYPEDPLEALKVDEIVMMVEDVFINIFADMKEKDEAKKLATHQALIAGKVKYLIEDIASKLEANTASPFCVGPSLTIADIMVHAMIATFQAGFLVGVPTTTAEDICPSLKGLDDAVMEHPKVKAYYASKA
B2: SjGST22 (Saccharina japonica) (protein)
chain: MAPKLVLTYFDIAGAAEAVRWALEQSGLEWEDKRLTRDEFGALKPSLPNGQVPILEVDGFVLAQSQAILRYVGKLGGLYPSDDLEAAKCDSVLDCATDFGINIRPSFMEKDQAKKMEMREDLAANFIPKWLASMEKQLASTGGIYFGEKMTVADIMIALRVKGLKGGVLDGVPTTIADSYPNLIALHDSIVGEPKIAAFIAKHAK

Substrate: O=[N+]([O-])c1ccc(Cl)c([N+](=O)[O-])c1
Experiment: purified protein
Format: biochemical, Saccharina japonica
Conditions: GSH co-substrate (30 μL of 60 mM in 900 μL)
[1] = 0.1 M potassium phosphate pH 7.0, 20 °C
[2] = 0.1 M potassium phosphate pH 8.0, 20 °C

Protein | Km [1] [µM] | kcat [1] [s⁻¹] | kcat/Km [1] [M⁻¹ s⁻¹] | Km [2] [µM] | kcat [2] [s⁻¹] | kcat/Km [2] [M⁻¹ s⁻¹]
B1 | 2706 | 9.83 | 3630 | – | – | –
B2 | – | – | – | 674 | 0.478 | 709
